Measured values published in patent US20220152104A1 (published 2022).

Target: T1, NY-ESO-1 peptide on HLA-B*40:01 (human)
T1 peptide: EFTVSGNIL
Assay: multimer staining
Excerpt: FIGS. 4A-4I are graphical representations of positive staining of Jurkat 76/CD8 cells transduced with B*40:01/NY-ESO-1₁₂₅₋₁₃₃ TCR genes with a cognate multimer. Jurkat 76/CD8 cells transduced with the B*40:01/NY-ESO-1₁₂₅₋₁₃₃ TCR (FIGS. 4B, 4E, and 4H) were stained with the B*40:01/NY-ESO-1₁₂₅₋₁₃₃ multimer (FIG. 4B). […], B*40:01/unexchanged multimer (FIGS. 4G, 4H, and 4I), and A*02:01/NY-ESO-1₁₅₇₋₁₆₅ TCR (clone 1G4LY; FIGS. 4C, 4F, and 4I) as well as untransduced Jurkat 76/CD8 cells (FIGS. 4A, 4D, and 4G) were employed as controls The percentage of multimer⁺ CD8⁺ cells is shown.
T cells (1×10⁵) were incubated for 30 minutes at 37° C. in the presence of 50 nM dasatinib (LC laboratories). The cells were then washed and incubated with 5-10 μg/ml of multimer for 30 minutes at room temperature, and R-phycoerythrin-conjugated AffiniPure Fab fragment goat anti-mouse IgG1 (Jackson ImmunoResearch Laboratories) was added for 15 minutes at 4° C. Next, the cells were washed three times and costained with an anti-CD8 mAb for 15 minutes at 4° C. Dead cells were finally discriminated using the LIVE/DEAD Fixable Dead Cell Stain kit.

- binding result: recognises
B1: B*40:01/NY-ESO-1125-133 TCR (TCR, V domains shown)
Valpha: SQQGEEDPQALSIQEGENATMNCSYKTSINNLQWYRQNSGRGLVHLILIRSNEREKHSGRLRVTLDTSKKSSSLLITASRAADTASYFCATDRGTDKLIFGTGTRLQVFP
Vbeta: NAGVTQTPKFRVLKTGQSMTLLCAQDMNHEYMYWYRQDPGMGLRLIHYSVGEGTTAKGEVPDGYNVSRLKKQNFLLGLESAAPSQTSVYFCASSPGVGTEAFFGQGTRLTVV
